Experimental findings from the supplement of paper PMC12042874 are described below.

± gives the uncertainty stated by the source.

The data set in a line: amyloid nucleation score (Sup35N fusion, yeast selection) (log enrichment); library NNK1; higher = more nucleation; inactive = no reads after selection. The method, boiled down:
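Sup35N was fused to peptides of 20 random codons and expressed in psi-negative yeast, which were induced with 100 μM copper sulfate for 24 hours and then grown on medium lacking adenine and uracil for 7 days at 30°C. Plasmid inserts from input and output were sequenced on Illumina. The nucleation score is the DiMSum log enrichment of output over input reads, centred on the mode score of non-aggregating sequences. Sequences with under 100 input reads were left out, and random libraries had three technical output replicates.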
With LPKMWYIDLFVSGVY, the amyloid nucleation score is 0.241 ± 0.48.

The substance VRSFGWTEFKCVTFFQEWIS returned an amyloid nucleation score of -0.029 ± 0.44.

In turn, GFFLVLYHCFYWISRVR had an amyloid nucleation score of 0.737 ± 0.58.

Take VYAYVSHLLIYVFSGRV: the amyloid nucleation score result is “inactive”.

In turn, FSSIIG registered an amyloid nucleation score of -0.528 ± 0.4.

In turn, RVYYSRYYVFDHSYFDTRRG had an amyloid nucleation score of -1.07 ± 1.3.

With ICYKGREHKPRIVNIGSDVR, the amyloid nucleation score entry is “inactive”.

Regarding IWRFIFGFGVYVCNGMALSQ, the amyloid nucleation score came out at 0.291 ± 0.53.

As to NVMQKNLFGSCIILLSWSLS, the amyloid nucleation score was 0.078 ± 0.26.

Regarding YTCSVGDVMINDSETSSKAG, the amyloid nucleation score stood at 0.053 ± 0.24.

Turning to PMYLSSVVCFSKRHMPANRG, the amyloid nucleation score is -0.138 ± 0.52.

On to DDRVSQLAWGLCAVSYARLE, for which the amyloid nucleation score worked out at 0.681 ± 0.54.

For YNYICTDSWILSTMVDFVHL, the amyloid nucleation score was -0.442 ± 0.92.

As to FFVLRLSLTFWSCKS, the amyloid nucleation score amounted to 1.3 ± 0.56.

For HMRDLEDPQWSDY, the amyloid nucleation score is -0.711 ± 0.32.

On to NHFGAYVVYGFIEHKKTGMW, for which the amyloid nucleation score was 1.82 ± 0.19.

For the substance IRLNVFFNMELMRLDLLWR, the amyloid nucleation score was found to be 0.311 ± 0.72.

PINLLVLIAGNFYWLWTFGQ had an amyloid nucleation score of 2.84 ± 0.15.

Substance KGAGMQTTQCVCKVYKLSWA showed an amyloid nucleation score of 0.281 ± 0.24.

Regarding NLALLEYVINSVSTMFYISN, the amyloid nucleation score was 0.276 ± 0.24.

As for SIHVVVTQLALISLLNVKSV, the amyloid nucleation score result is “inactive”.

Substance SWNMSFVWFHGCITWRQKGF showed an amyloid nucleation score of 0.408 ± 0.4.

For the substance TYVCDMEHSVYCYYVEAQLY, the amyloid nucleation score amounted to 0.49 ± 0.4.

Turning to VRYSL, the amyloid nucleation score is -0.42 ± 0.35.

Take NVAPSQSFPSLYCSE: the amyloid nucleation score entry is “inactive”.

ILTLIMAL came in with an amyloid nucleation score of 0.013 ± 0.33.

Take RCIPLNNNFYASKQLLMSME: the amyloid nucleation score is 0.259 ± 0.62.

As for TYPYFDWPFRTRRLMEVSET, the amyloid nucleation score was -0.4 ± 0.63.

FWLILFIVFIKYMNILFRTC: the amyloid nucleation score is 1.08 ± 0.27.

KTGPAA showed an amyloid nucleation score of -0.17 ± 0.73.

Substance AVIVVV had an amyloid nucleation score of 0.175 ± 0.39.

With IGIFIGRLCCYIFGEVMR, the amyloid nucleation score stood at 1.16 ± 0.16.

For the substance IAYVQFAPRKY, the amyloid nucleation score amounted to 0.776 ± 0.36.

With CYYLFLHSCSYARGIFC, the amyloid nucleation score is -0.366 ± 0.52.

Turning to SFRCDVD, the amyloid nucleation score is -0.217 ± 0.55.

On to VGEALYHESSGTVNLEILCS, for which the amyloid nucleation score result is “inactive”.

Turning to RGSQGLVNLYIAFPMECLGI, the amyloid nucleation score was found to be 3.73 ± 0.087.

MQLTFAVKLGENRE returned an amyloid nucleation score of 2.77 ± 0.079.

In the case of DFENWPVRLWYFKTIFLRS, the amyloid nucleation score was 1.93 ± 0.51.

CITTVPHQPMVLWTICFPTM: the amyloid nucleation score amounted to 0.614 ± 0.95.

Regarding MRRPVKCYGVVTL, the amyloid nucleation score is -0.299 ± 1.1.

WSDHDCIRPNFKYCMIRGRS yielded an amyloid nucleation score of 0.531 ± 0.3.

For the substance GNRSSS, the amyloid nucleation score entry is “inactive”.

In turn, HNHSTYFHYRFGVSLVLTSR returned an amyloid nucleation score of 2.29 ± 0.38.

Consider VWLWDLA, for which the amyloid nucleation score came to 1.25 ± 0.62.

Take NIAYQTDSGVRLRFVTDSRG: the amyloid nucleation score result is “inactive”.

As for FLFRGV, the amyloid nucleation score is -0.28 ± 0.91.

KPWYFVISW had an amyloid nucleation score of -0.007 ± 1.2.

As for TLAIESGRFWINRLWYVEGE, the amyloid nucleation score is -1.55 ± 1.3.

With SRVNDQCVLSSWR, the amyloid nucleation score is 0.47 ± 0.5.

SKLIHYTSFLDYASSGEWKW displayed an amyloid nucleation score of 2.81 ± 0.17.

Substance PCLNRLVV gave an amyloid nucleation score of 0.386 ± 0.5.

Turning to LYPNRAGGRLAGLGGMPYE, the amyloid nucleation score was 0.085 ± 0.44.

For AFRYDRVWVGQQLFGQECRP, the amyloid nucleation score was 0.054 ± 0.46.

For the substance ESRLLYSFRWVGERAVPSAN, the amyloid nucleation score was found to be 0.4 ± 0.58.

Turning to VECSCKLRLAASGGNYRGWG, the amyloid nucleation score came out at 2.3 ± 0.25.

MRIIQCRRLFKVCCCFSVCL returned an amyloid nucleation score of 2.28 ± 0.14.

Take MRDLALLAEVLVTD: the amyloid nucleation score was determined as 0.295 ± 0.4.

The substance PLRASRTMTSGKLQPNLRRK yielded an amyloid nucleation score of 0.035 ± 0.76.

QNFSRTGGIGIHKIFVGMGE returned an amyloid nucleation score of -1.13 ± 1.4.

In turn, WGSYS had an amyloid nucleation score of 0.118 ± 1.1.

In turn, QGCIVQGAASEIEANLAQLS came in with an amyloid nucleation score of 1.08 ± 0.59.

As to FNMPDKQILKLESLWHGMVA, the amyloid nucleation score result is “inactive”.

Consider GQGALRVDCLVHRQVVSVVL, for which the amyloid nucleation score was 0.176 ± 0.62.

As for CGMMVSEGSVSCRSLPIYLA, the amyloid nucleation score was 0.275 ± 0.34.

Turning to FRMGFISYQTQTLTSRVFSF, the amyloid nucleation score amounted to 2.73 ± 0.19.

Substance RVGYH gave an amyloid nucleation score of -0.135 ± 0.35.

For WFGSYWSIVVTTVRVIV, the amyloid nucleation score result was “inactive”.

The substance FIGMTDPMSIDILLLSS had an amyloid nucleation score of 0.389 ± 0.58.

Consider SDFQRE, for which the amyloid nucleation score turned out to be 3.91 ± 0.099.

With NTMGSNWYMVVNSWFVRRCS, the amyloid nucleation score is -1.01 ± 1.2.

YFTRFGHSELRSFMLVGTDM had an amyloid nucleation score of -0.007 ± 0.28.

Substance IVGLQAVENIRNSCICLFMK came in with an amyloid nucleation score of 4.5 ± 0.065.

In the case of MSASLWRGNKVDHWHSECYK, the amyloid nucleation score was -0.661 ± 0.64.

In the case of TWIEDCSYYEMYTGPERTLT, the amyloid nucleation score was -0.282 ± 0.46.

Regarding PDCLPPWSRRLLGNRVAIGL, the amyloid nucleation score turned out to be 1.01 ± 0.57.

ALRAP showed an amyloid nucleation score of -0.383 ± 0.62.

As for TDRTQTYSTFASRGSDVTVT, the amyloid nucleation score came to 0.185 ± 0.35.

As to LFALNCDCM, the amyloid nucleation score was determined as 7.448 ± 0.053.

Consider DMLRMVRYTVWVSRVRSHGW, for which the amyloid nucleation score was 3.07 ± 0.079.

Take SYRGWADADNLVLYPQNASV: the amyloid nucleation score came out at 0.021 ± 0.97.

GFSRYSPRSKFFNSLVLKSS: the amyloid nucleation score was -0.171 ± 1.1.

As for RIVILLKVIYFQFYRLQYIT, the amyloid nucleation score came to 0.03 ± 0.32.

For the substance KAEVRVRARELAEGMGARGR, the amyloid nucleation score was found to be 0.693 ± 0.72.

On to SGSVTVCGIATTPCNMGDRK, for which the amyloid nucleation score came out at 0.405 ± 0.79.

SSPWRYSDATFCTAGGEGKS had an amyloid nucleation score of -0.465 ± 0.62.

FMTEWSVTFMRMYMAYLGSV registered an amyloid nucleation score of 0.424 ± 0.29.

LSQIWIKSPGFAKDFTPILC had an amyloid nucleation score of 0.045 ± 0.36.

TSVHDRQELRDRLV showed an amyloid nucleation score of 0.69 ± 0.32.

For VEDENKDSVIKVEKLLPHNL, the amyloid nucleation score was -0.342 ± 0.29.

Substance EDVAYYGNGFRLTYDRQITL came in with an amyloid nucleation score of -0.733 ± 0.67.

Regarding SWLWSCSCLRVAMLTT, the amyloid nucleation score result is “inactive”.

Take FQSECSCIPKAWSVFMGTAG: the amyloid nucleation score is -0.476 ± 0.58.

For the substance EQASVIKDVYFPHILRLRMA, the amyloid nucleation score is -0.432 ± 0.4.

EVADVGKMMIVVGDCRVFRW yielded an amyloid nucleation score of 5.593 ± 0.048.

DGYGLIFW came in with an amyloid nucleation score of -0.268 ± 0.47.

In turn, ACPDHMRV gave an amyloid nucleation score of 1.33 ± 0.62.

ASFITGWMANTYN: the amyloid nucleation score came to 0.385 ± 0.42.

Consider LGHGGVR, for which the amyloid nucleation score was 0.566 ± 0.28.

Consider FGEYSCGRREMPYCFLDYYL, for which the amyloid nucleation score amounted to 0.356 ± 0.41.

GRVLYKSCALNNFSIMQVLC yielded an amyloid nucleation score of 4.61 ± 0.1.

RFEGERRVVG displayed an amyloid nucleation score of -0.035 ± 0.3.

For DVVICRYSAVIRVFLTLKFK, the amyloid nucleation score was -0.202 ± 0.49.
